The data set concerns the molecule itself. Briefly: AUC; sedimentation equilibrium, 4 °C, Beckman Optima XL-A, absorption optics; samples at 60 μM and 160 μM in 25 mM Tris pH 7.5-8.5, 500 mM NaCl (other salts in some runs); 11,000-22,000 rpm; single-species fits and global fits of monomer-dimer and other models; monomer to dimer.

The values below come from paper PMC4549865, “The Escherichia coli NarL receiver domain regulates transcription through promoter specific functions” (BMC Microbiology, 2015).

B1: NarL N-terminal domain plus linker region (NarL^N, residues 2-141), unphosphorylated (domain or fragment, Escherichia coli, UniProt P0AF28 2-141, looked up)
chain: SNQEPATILLIDDHPMLRTGVKQLISMAPDITVVGEASNGEQGIELAESLDPDLILLDLNMPGMNGLETLDKLREKSLSGRIVVFSVSNHEEDVVTALKRGADGYLLKDMEPEDLLKALHQAAAGEMVLSEALTPVLAAS
notes: NarL, nitrate response regulator of Escherichia coli; residues 2-141 (in-frame beginning at Ser2, stop codon introduced at Leu142); receiver domain and linker helix alpha6; The pQE9 construction puts a Gly in the place of Met1, before Ser2; also called NarL^(N (2–141)); NarL RD; source: E. coli JM109 (pQE9 derivative pMJ99), purified (Ni-NTA resin or HiTrap chelating column)
By stoichiometry N is commonly meant a count of units in the complex or per binding partner. In the case of B1, the “stoichiometry N” value was 2.

B2: Phosphorylated NarL receiver domain with portion of the linker (NarL^N-P, residues 2-141) (domain or fragment, Escherichia coli, UniProt P0AF28 2-141, looked up)
chain: B1 chain
modifications: phosphorylated with acetyl phosphate; the site of phosphorylation is Asp59
notes: NarL, nitrate response regulator of Escherichia coli; residues 2-141 (in-frame beginning at Ser2, stop codon introduced at Leu142); receiver domain and linker helix alpha6; The pQE9 construction puts a Gly in the place of Met1, before Ser2; also called phosphorylated NarL^N; phosphorylated RD
On to B2, for which the “stoichiometry N” value was found to be 2.
